Assay results published in the supplement of paper PMC11246515.
± gives the standard deviation of the averaged measurements.

Assay: total protein half-life in vivo (active degradation + dilution); higher = more stable protein
[1] = E. coli NCM3722 delta-clpP delta-lon delta-hslV, growth: N-lim chemostat, doubling time 6 h
[2] = E. coli NCM3722 delta-clpP, growth: N-lim chemostat, doubling time 6 h
[3] = E. coli NCM3722 delta-hslV, growth: N-lim chemostat, doubling time 6 h
[4] = E. coli NCM3722 delta-lon, growth: N-lim chemostat, doubling time 6 h
[5] = E. coli NCM3722 delta-smpB, growth: N-lim chemostat, doubling time 6 h
[6] = wild type E. coli NCM3722, growth: C-lim chemostat, doubling time 3 h
[7] = wild type E. coli NCM3722, growth: C-lim chemostat, doubling time 6 h
[8] = wild type E. coli NCM3722, growth: N-lim chemostat, doubling time 6 h
[9] = wild type E. coli NCM3722, growth: N-lim chemostat, doubling time 12 h
[10] = wild type E. coli NCM3722, growth: P-lim chemostat, doubling time 6 h
[11] = wild type E. coli NCM3722, growth: P-lim chemostat, doubling time 12 h
[12] = wild type E. coli NCM3722, growth: C-lim chemostat, doubling time 12 h

Row | Sequence | total protein half-life in vivo [1] | total protein half-life in vivo [2] | total protein half-life in vivo [3] | total protein half-life in vivo [4] | total protein half-life in vivo [5] | total protein half-life in vivo [6] | total protein half-life in vivo [7] | total protein half-life in vivo [8] | total protein half-life in vivo [9] | total protein half-life in vivo [10] | total protein half-life in vivo [11] | total protein half-life in vivo [12]
1 | MGQEKLYIEKELSWLSFNERVLQEAADKSNPLIERMRFLGIYSNNLDEFYKVRFAELKRRIIISEEQGSNSHSRHLLGKIQSRVLKADQEFDGLYNELLLEMARNQIFLINERQLSVNQQNWLRHYFKQYLRQHITPILINPDTDLVQFLKDDYTYLAVEIIRGDTIRYALLEIPSDKVPRFVNLPPEAPRRRKPMILLDNILRYCLDDIFKGFFDYDALNAYSMKMTRDAEYDLVHEMEASLMELMSSSLKQRLTAEPVRFVYQRDMPNALVEVLREKLTISRYDSIVPGGRYHNFKDFINFPNVGKANLVNKPLPRLRHIWFDKAQFRNGFDAIRERDVLLYYPYHTFEHVLELLRQASFDPSVLAIKINIYRVAKDSRIIDSMIHAAHNGKKVTVVVELQARFDEEANIHWAKRLTEAGVHVIFSAPGLKIHAKLFLISRKENGEVVRYAHIGTGNFNEKTARLYTDYSLLTADARITNEVRRVFNFIENPYRPVTFDYLMVSPQNSRRLLYEMVDREIANAQQGLPSGITLKLNNLVDKGLVDRLYAASSSGVPVNLLVRGMCSLIPNLEGISDNIRAISIVDRYLEHDRVYIFENGGDKKVYLSSADWMTRNIDYRIEVATPLLDPRLKQRVLDIIDILFSDTVKARYIDKELSNRYVPRGNRRKVRAQLAIYDYIKSLEQPE [P0A7B1] | 6.92 ± 0.14 h | 6.36 ± 0.29 h | 6.79 ± 0.42 h | 6.1 ± 0.063 h | 6.038 ± 0.039 h | 3.29 ± 0.35 h | 6.27 ± 0.57 h | 5.94 ± 0.53 h | 13 ± 1.2 h | 6.65 ± 0.23 h | 13 ± 1.4 h | 
2 | MGQRIPVTLGNIAPLSLRPFQPGRIALVCEGGGQRGIFTAGVLDEFMRAQFNPFDLYLGTSAGAQNLSAFICNQPGYARKVIMRYTTKREFFDPLRFVRGGNLIDLDWLVEATASQMPLQMDTAARLFDSGKSFYMCACRQDDYAPNYFLPTKQNWLDVIRASSAIPGFYRSGVSLEGINYLDGGISDAIPVKEAARQGAKTLVVIRTVPSQMYYTPQWFKRMERWLGDSSLQPLVNLVQHHETSYRDIQQFIEKPPGKLRIFEIYPPKPLHSIALGSRIPALREDYKLGRLCGRYFLATVGKLLTEKAPLTRHLVPVVTPESIVIPPAPVANDTLVAEVSDAPQANDPTFNNEDLA | 5.99 ± 1.5 h | 1.8805 ± 0.0012 h | 1.31 ± 0.025 h | 1.89 ± 0.25 h | 1.185 ± 0.0061 h | 1.89 ± 0.15 h | 3.889 ± 0.011 h | 1.45 ± 0.16 h | 1.77 ± 0.024 h | 2.12 ± 0.31 h | 4.69 ± 0.97 h | 4.59 ± 0.59 h
3 | MGRILLDLSNEVIKQLDDLEVQRNLPRADLLREAVDQYLINQSQTARTSVPGIWQGCEEDGVEYQRKLREEW [P0AFU6] |  | 6.89 h |  |  |  |  |  |  |  |  |  | 
4 | MGSNIHGISCTANNYLKQAWNDIKNEYEKNQTYSITLFENTLVCFMRLYNELRRKVNEEDTPCLECESLEKEFEEMQNDNDLSLFMRILRTNDTQIYSGVSGGITYTIQYVRDIDIVRVSLPGRASESITDFKGYYWYNFMEYIENINACDDVFSEYCFDDENISVQPERINTPGISDLDSDIDLSGISFIQRETNQALGLKYAPVDGDGYCLLRAILVLKQHDYSWALVSYKMQKEVYNEFIKMVDKKTIEALVDTAFYNLREDVKTLFGVDLQSDNQIQGQSSLMSWSFLFFKKQFIDSCLNNEKCILHLPEFIFNDNKNLLALDTDTSDRIKAVKNFLVVLSDSICSLFIVNSNVASISLGNESFSTDEDLEYGYLMNTGNHYDVYLPPELFAQAYKLNNKEMNAQLDYLNRYAI |  |  |  | 5.18 h |  |  |  |  |  |  |  | 
5 | MGSPSLYSARKTTLALAVALSFAWQAPVFAHGGEAHMVPMDKTLKEFGADVQWDDYAQLFTLIKDGAYVKVKPGAQTAIVNGQPLALQVPVVMKDNKAWVSDTFINDVFQSGLDQTFQVEKRPHPLNALTADEIKQAVEIVKASADFKPNTRFTEISLLPPDKEAVWAFALENKPVDQPRKADVIMLDGKHIIEAVVDLQNNKLLSWQPIKDAHGMVLLDDFASVQNIINNSEEFAAAVKKRGITDAKKVITTPLTVGYFDGKDGLKQDARLLKVISYLDVGDGNYWAHPIENLVAVVDLEQKKIVKIEEGPVVPVPMTARPFDGRDRVAPAVKPMQIIEPEGKNYTITGDMIHWRNWDFHLSMNSRVGPMISTVTYNDNGTKRKVMYEGSLGGMIVPYGDPDIGWYFKAYLDSGDYGMGTLTSPIARGKDAPSNAVLLNETIADYTGVPMEIPRAIAVFERYAGPEYKHQEMGQPNVSTERRELVVRWISTVGNYDYIFDWIFHENGTIGIDAGATGIEAVKGVKAKTMHDETAKDDTRYGTLIDHNIVGTTHQHIYNFRLDLDVDGENNSLVAMDPVVKPNTAGGPRTSTMQVNQYNIGNEQDAAQKFDPGTIRLLSNPNKENRMGNPVSYQIIPYAGGTHPVAKGAQFAPDEWIYHRLSFMDKQLWVTRYHPGERFPEGKYPNRSTHDTGLGQYSKDNESLDNTDAVVWMTTGTTHVARAEEWPIMPTEWVHTLLKPWNFFDETPTLGALKKDK | 4.75 h |  |  |  | 5.04 ± 0.69 h | 2.69 h | 6.4 ± 0.067 h |  | 11.8 h |  | 11.1 ± 0.71 h | 6.83 h
6 | MHADTATRQHWMSVLAHSQPAELAARLNALNITADYEVIRAAETGLVQIQARMGGTGERFFAGDATLTRAAVRLTDGTLGYSWVQGRDKQHAERCALIDALMQQSRHFQNLSETLIAPLDADRMARIAARQAEVNASRVDFFTMVRGDNA |  |  |  |  |  |  |  |  |  | 1.11 ± 1.1 h | 1.64 ± 0.035 h | 
7 | MHENQQPQTEAFELSAAEREAIEHEMHHYEDPRAASIEALKIVQKQRGWVPDGAIHAIADVLGIPASDVEGVATFYSQIFRQPVGRHVIRYCDSVVCHINGYQGIQAALEKKLNIKPGQTTFDGRFTLLPTCCLGNCDKGPNMMIDEDTHAHLTPEAIPELLERYK [P0AFD1] | 5.62 ± 0.92 h | 5.62 ± 0.45 h |  | 5.97 ± 0.51 h | 6.57 ± 0.34 h | 2.65 ± 0.54 h | 4.79 ± 0.22 h | 5.04 ± 0.18 h | 10.3 ± 0.36 h | 4.85 ± 0.61 h | 11 ± 0.14 h | 8.87 ± 1.4 h
